Results from patent publication US20230049152A1 (Genentech, published 2023).

B1: hu.Ab4.H2L1 (antibody, human IgG1, kappa)
heavy: not shown
light: DYQMTQSPSSLSASVGDRVTITCQASQSISSYLSWYQQKPGKRPKLLIYKASTLASGVPSRFSGSGSGTDFTLTISSLQPEDFATYYCQQGYTSSNIDNIFGGGTKVEIKRTVAAPSVFIFPPSDEQLKSGTASVVCLLNNFYPREAKVQWKVDNALQSGNSQESVTEQDSKDSTYSLSSTLTLSKADYEKHKVYACEVTHQGLSSPVTKSFNRGEC
B2: hu.Ab4.H4L1 (antibody, human IgG1, kappa, V domains shown)
VH: EQQLLESGGGLVQPGGSLRLSCAVSGFSLSNYAMIWVRQAPGKGLEWVSTISLGGYTYYANWAKGRFTISKDSSKTTVYLQMNSLRAEDTAVYFCARARWSTDSAIYTYAFDPWGPGTLVTVSS
VL: DYQMTQSPSSLSASVGDRVTITCQASQSISSYLSWYQQKPGKRPKLLIYKASTLASGVPSRFSGSGSGTDFTLTISSLQPEDFATYYCQQGYTSSNIDNIFGGGTKVEIKR
B3: hu.Ab4.H5L1 (antibody, human IgG1, kappa, V domains shown)
VH: EQQLLESGGGLVQPGGSLRLSCAVSGFSLSNYAMIWVRQAPGKGLEWVGTISLGGYTYYANWAKGRFTISRDSSKTTVYLQMNSLRAEDTAVYFCARARWSTDSAIYTYAFDPWGPGTLVTVSS
VL: DYQMTQSPSSLSASVGDRVTITCQASQSISSYLSWYQQKPGKRPKLLIYKASTLASGVPSRFSGSGSGTDFTLTISSLQPEDFATYYCQQGYTSSNIDNIFGGGTKVEIKR
B4: hu.Ab4.H6L1 (antibody, human IgG1, kappa, V domains shown)
VH: EQQLLESGGGLVQPGGSLRLSCAVSGFSLSNYAMIWVRQAPGKGLEWVGTISLGGYTYYANWAKGRFTISKDNSKTTVYLQMNSLRAEDTAVYFCARARWSTDSAIYTYAFDPWGPGTLVTVSS
VL: DYQMTQSPSSLSASVGDRVTITCQASQSISSYLSWYQQKPGKRPKLLIYKASTLASGVPSRFSGSGSGTDFTLTISSLQPEDFATYYCQQGYTSSNIDNIFGGGTKVEIKR
B5: hu.Ab4.H3L1 (antibody, human IgG1, kappa, V domains shown)
VH: EQQLLESGGGLVQPGGSLRLSCAASGFSLSNYAMIWVRQAPGKGLEWVGTISLGGYTYYANWAKGRFTISKDSSKTTVYLQMNSLRAEDTAVYFCARARWSTDSAIYTYAFDPWGPGTLVTVSS
VL: DYQMTQSPSSLSASVGDRVTITCQASQSISSYLSWYQQKPGKRPKLLIYKASTLASGVPSRFSGSGSGTDFTLTISSLQPEDFATYYCQQGYTSSNIDNIFGGGTKVEIKR
B6: hu.Ab4.H7L1 (antibody, human IgG1, kappa, V domains shown)
VH: EQQLLESGGGLVQPGGSLRLSCAVSGFSLSNYAMIWVRQAPGKGLEWVGTISLGGYTYYANWAKGRFTISKDSSKNTVYLQMNSLRAEDTAVYFCARARWSTDSAIYTYAFDPWGPGTLVTVSS
VL: DYQMTQSPSSLSASVGDRVTITCQASQSISSYLSWYQQKPGKRPKLLIYKASTLASGVPSRFSGSGSGTDFTLTISSLQPEDFATYYCQQGYTSSNIDNIFGGGTKVEIKR
B7: hu.Ab4.H8L1 (antibody, human IgG1, kappa, V domains shown)
VH: EQQLLESGGGLVQPGGSLRLSCAVSGFSLSNYAMIWVRQAPGKGLEWVGTISLGGYTYYANWAKGRFTISKDSSKTTLYLQMNSLRAEDTAVYFCARARWSTDSAIYTYAFDPWGPGTLVTVSS
VL: DYQMTQSPSSLSASVGDRVTITCQASQSISSYLSWYQQKPGKRPKLLIYKASTLASGVPSRFSGSGSGTDFTLTISSLQPEDFATYYCQQGYTSSNIDNIFGGGTKVEIKR
B8: hu.Ab4.H9L1 (antibody, human IgG1, kappa, V domains shown)
VH: EQQLLESGGGLVQPGGSLRLSCAVSGFSLSNYAMIWVRQAPGKGLEWVGTISLGGYTYYANWAKGRFTISKDSSKTTVYLQMNSLRAEDTAVYYCARARWSTDSAIYTYAFDPWGPGTLVTVSS
VL: DYQMTQSPSSLSASVGDRVTITCQASQSISSYLSWYQQKPGKRPKLLIYKASTLASGVPSRFSGSGSGTDFTLTISSLQPEDFATYYCQQGYTSSNIDNIFGGGTKVEIKR
B9: hu.Ab5.H2L1 (antibody, human IgG1, kappa)
heavy: not shown
light: DIQVTQSPSSLSASVGDRVTITCQASENIANALAWYQQKPGKPPKFLIYGASNLASGVPSRFSGSGSGTDFTFTISSLQPEDIATYYCQQAYYGNSFVEGTFGGGTKVEIKRTVAAPSVFIFPPSDEQLKSGTASVVCLLNNFYPREAKVQWKVDNALQSGNSQESVTEQDSKDSTYSLSSTLTLSKADYEKHKVYACEVTHQGLSSPVTKSFNRGEC
B10: hu.Ab5.H5L1 (antibody, human IgG1, kappa, V domains shown)
VH: EQQLLESGGGLVQPGGSLRLSCAVSGIDLSTYAMGWVRQAPGKGLEWISLIHRSGRTYYATWAKGRFTISKDSSKTTVYLQMNSLRAEDTAVYFCTRSYPDYSATASIWGPGTTVTVSS
VL: DIQVTQSPSSLSASVGDRVTITCQASENIANALAWYQQKPGKPPKFLIYGASNLASGVPSRFSGSGSGTDFTFTISSLQPEDIATYYCQQAYYGNSFVEGTFGGGTKVEIKR
B11: hu.Ab5.H3L1 (antibody, human IgG1, kappa, V domains shown)
VH: EQQLLESGGGLVQPGGSLRLSCAASGIDLSTYAMGWVRQAPGKGLEWIGLIHRSGRTYYATWAKGRFTISKDSSKTTVYLQMNSLRAEDTAVYFCTRSYPDYSATASIWGPGTTVTVSS
VL: DIQVTQSPSSLSASVGDRVTITCQASENIANALAWYQQKPGKPPKFLIYGASNLASGVPSRFSGSGSGTDFTFTISSLQPEDIATYYCQQAYYGNSFVEGTFGGGTKVEIKR
B12: hu.Ab5.H12L1 (antibody, human IgG1, kappa, V domains shown)
VH: EVQLLESGGGLVQPGGSLRLSCAASGIDLSTYAMGWVRQAPGKGLEWVSLIHRSGRTYYATWAKGRFTISRDNSKNTLYLQMNSLRAEDTAVYYCTRSYPDYSATASIWGQGTTVTVSS
VL: DIQVTQSPSSLSASVGDRVTITCQASENIANALAWYQQKPGKPPKFLIYGASNLASGVPSRFSGSGSGTDFTFTISSLQPEDIATYYCQQAYYGNSFVEGTFGGGTKVEIKR
B13: hu.Ab5.H7L1 (antibody, human IgG1, kappa, V domains shown)
VH: EQQLLESGGGLVQPGGSLRLSCAVSGIDLSTYAMGWVRQAPGKGLEWIGLIHRSGRTYYATWAKGRFTISKDNSKTTVYLQMNSLRAEDTAVYFCTRSYPDYSATASIWGPGTTVTVSS
VL: DIQVTQSPSSLSASVGDRVTITCQASENIANALAWYQQKPGKPPKFLIYGASNLASGVPSRFSGSGSGTDFTFTISSLQPEDIATYYCQQAYYGNSFVEGTFGGGTKVEIKR
B14: hu.Ab5.H11L1 (antibody, human IgG1, kappa)
heavy: not shown
light: DIQVTQSPSSLSASVGDRVTITCQASENIANALAWYQQKPGKPPKFLIYGASNLASGVPSRFSGSGSGTDFTFTISSLQPEDIATYYCQQAYYGNSFVEGTFGGGTKVEIKRTVAAPSVFIFPPSDEQLKSGTASVVCLLNNFYPREAKVQWKVDNALQSGNSQESVTEQDSKDSTYSLSSTLTLSKADYEKHKVYACEVTHQGLSSPVTKSFNRGEC
B15: hu.Ab5.H9L1 (antibody, human IgG1, kappa, V domains shown)
VH: EQQLLESGGGLVQPGGSLRLSCAVSGIDLSTYAMGWVRQAPGKGLEWIGLIHRSGRTYYATWAKGRFTISKDSSKTTLYLQMNSLRAEDTAVYFCTRSYPDYSATASIWGPGTTVTVSS
VL: DIQVTQSPSSLSASVGDRVTITCQASENIANALAWYQQKPGKPPKFLIYGASNLASGVPSRFSGSGSGTDFTFTISSLQPEDIATYYCQQAYYGNSFVEGTFGGGTKVEIKR
B16: hu.Ab5.H10L1 (antibody, human IgG1, kappa, V domains shown)
VH: EQQLLESGGGLVQPGGSLRLSCAVSGIDLSTYAMGWVRQAPGKGLEWIGLIHRSGRTYYATWAKGRFTISKDSSKTTVYLQMNSLRAEDTAVYYCTRSYPDYSATASIWGPGTTVTVSS
VL: DIQVTQSPSSLSASVGDRVTITCQASENIANALAWYQQKPGKPPKFLIYGASNLASGVPSRFSGSGSGTDFTFTISSLQPEDIATYYCQQAYYGNSFVEGTFGGGTKVEIKR
B17: hu.Ab5.H4L1 (antibody, human IgG1, kappa, V domains shown)
VH: EQQLLESGGGLVQPGGSLRLSCAVSGIDLSTYAMGWVRQAPGKGLEWVGLIHRSGRTYYATWAKGRFTISKDSSKTTVYLQMNSLRAEDTAVYFCTRSYPDYSATASIWGPGTTVTVSS
VL: DIQVTQSPSSLSASVGDRVTITCQASENIANALAWYQQKPGKPPKFLIYGASNLASGVPSRFSGSGSGTDFTFTISSLQPEDIATYYCQQAYYGNSFVEGTFGGGTKVEIKR
B18: hu.Ab5.H8L1 (antibody, human IgG1, kappa, V domains shown)
VH: EQQLLESGGGLVQPGGSLRLSCAVSGIDLSTYAMGWVRQAPGKGLEWIGLIHRSGRTYYATWAKGRFTISKDSSKNTVYLQMNSLRAEDTAVYFCTRSYPDYSATASIWGPGTTVTVSS
VL: DIQVTQSPSSLSASVGDRVTITCQASENIANALAWYQQKPGKPPKFLIYGASNLASGVPSRFSGSGSGTDFTFTISSLQPEDIATYYCQQAYYGNSFVEGTFGGGTKVEIKR
B19: hu.Ab5.H6L1 (antibody, human IgG1, kappa, V domains shown)
VH: EQQLLESGGGLVQPGGSLRLSCAVSGIDLSTYAMGWVRQAPGKGLEWIGLIHRSGRTYYATWAKGRFTISRDSSKTTVYLQMNSLRAEDTAVYFCTRSYPDYSATASIWGPGTTVTVSS
VL: DIQVTQSPSSLSASVGDRVTITCQASENIANALAWYQQKPGKPPKFLIYGASNLASGVPSRFSGSGSGTDFTFTISSLQPEDIATYYCQQAYYGNSFVEGTFGGGTKVEIKR

These binders were tested against T1, human CCR8 (human, UniProt P51685 1-355) (assay: flow cytometry, CHO-huCCR8.Gna15 cells, relative to rb.Ab4).
T1 construct: the assay field says which; also called hCCR8; huCCR8
Method: (§1) Evaluation of CCR8 binding of the humanized variants with a hIgG1 Fc involved screening by flow cytometry, and comparing the relative EC₅₀ and MFI on human CCR8 CHO cells to the parental rabbit antibodies. Specifically, stable CHO-huCCR8.Gna15 cells were stained with various concentrations (starting from 10 ug/ml or 66.66 nM, 1:4 serial dilution for total 8 concentration points) of Ab4 and Ab5 variants at 4° C. for 30 minutes, then washed twice with FACS buffer (PBS with 0.5% BSA and 0.2 mM EDTA) and followed by staining with AF647-anti-hIgG at 4° C. for 15 min. Cells were washed twice with FACS buffer, and re-suspended in FACS buffer with propidium iodide (0.5 ug/ml) and analyzed with iQue3 (Sartorius).
For B1, the “Relative EC50” value was 0.99 ratio and the “Relative MFI” value was 1.07 ratio.
For B2, the “Relative EC50” value was 0.96 ratio and the “Relative MFI” value was 1.06 ratio.
With B3 the “Relative EC50” value was 1.02 ratio and the “Relative MFI” value was 0.9 ratio.
For B4, the “Relative EC50” value was 1.06 ratio and the “Relative MFI” value was 0.68 ratio.
In the case of B5, the “Relative EC50” value is reported as 1 ratio and the “Relative MFI” value is reported as 1.02 ratio.
In the case of B6, the “Relative EC50” value is reported as 1.05 ratio and the “Relative MFI” value is reported as 0.44 ratio.
For B7, the “Relative EC50” value was 1.03 ratio and the “Relative MFI” value was 0.72 ratio.
B8 was tested, and the “Relative EC50” value was 1.04 ratio and the “Relative MFI” value was 0.87 ratio.

Each binder was assayed against T1, human CCR8 (assay: flow cytometry, CHO-huCCR8.Gna15 cells, relative to rb.Ab5).
Method: as §1
B9 was tested, and the “Relative EC50” value was 1.1 ratio and the “Relative MFI” value was 0.93 ratio.
For B10, the “Relative EC50” value was 7.6 ratio and the “Relative MFI” value was 0.35 ratio.
In the case of B11, the “Relative EC50” value is reported as 1.5 ratio and the “Relative MFI” value is reported as 1 ratio.
In the case of B12, the “Relative EC50” value is reported as 2.3 ratio and the “Relative MFI” value is reported as 0.26 ratio.
For B13, the “Relative EC50” value was 2.2 ratio and the “Relative MFI” value was 0.96 ratio.
With B14 the “Relative EC50” value was 1.3 ratio and the “Relative MFI” value was 0.87 ratio.
For B15, the “Relative EC50” value was 1.3 ratio and the “Relative MFI” value was 0.92 ratio.
With B16 the “Relative EC50” value was 1.2 ratio and the “Relative MFI” value was 0.87 ratio.
For B17, the “Relative EC50” value was 1.5 ratio and the “Relative MFI” value was 0.95 ratio.
B18 was tested, and the “Relative EC50” value was 1.4 ratio and the “Relative MFI” value was 0.94 ratio.
B19 was tested, and the “Relative EC50” value was 2.4 ratio and the “Relative MFI” value was 0.97 ratio.
